Target: T1, NikR (Helicobacter pylori 26695) (UniProt O25896)
T1 sequence: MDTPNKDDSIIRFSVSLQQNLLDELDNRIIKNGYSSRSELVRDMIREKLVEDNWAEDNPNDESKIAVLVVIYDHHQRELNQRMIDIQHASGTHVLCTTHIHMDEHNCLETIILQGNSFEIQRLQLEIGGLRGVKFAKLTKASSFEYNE
Assay: EMSA

Sequence	binding
TTGGGTTGATTTAACTCAAGCAAATTTTCTTCAATCCTAACAAATTTGGCTGCAAATTAAAAAATTTAAGCTTTTTTCTTTTTTTTTGATTTAATACTAGGTATAATTTTAATTCCACCT (double strand) [Probe-flgR 1]	binds
TAAGCTTTTTTCTTTTTTTTTGATTTAATACTAGGTATAATTTTAATTCCACCTAACAAGGAAAAGCTATGAAAGTAACACAAGGCATTGCTAACGACTTTTTTGCCCTAACAAACACGA (double strand) [Probe-flgR 2]	binds
TAGCAATGTTTTGATTTACTAAGATTAACAGAAGCGTTCATTAACTAATTATTATTTAAAATGAATTAGTGTTATATCTTTGAAGCGCTATAAAATCGTTATTAGAAGTGCGTTTAATAC (double strand) [OPhp0073]	binds
